In patent US6159731, “Daxx, a Fas-binding protein that activates JNK and apoptosis” (Massachusetts Institute of Technology, dated 2000):

B1: in vitro translated 35S-labeled full length murine Daxx (other)
chain: MATDDSIIVLDDDDEDEAAAQPGPSNLPPNPASTGPGPGLSQQATGLSEPRVDGGSSNSGSRKCYKLDNEKLFEEFLELCKTETSDHPEVVPFLHKLQQRAQSVFLASAEFCNILSRVLARSRKRPAKIYVYINELCTVLKAHSIKKKLNLAPAASTTSEASGPNPPTEPPSDLTNTENTASEASRTRGSRRQIQRLEQLLALYVAEIRRLQEKELDLSELDDPDSSYLQEARLKRKLIRLFGRLCELKDCSSLTGRVIEQRIPYRGTRYPEVNRRIERLINKPGLDTFPDYGDVLRAVEKAATRHSLGLPRQQLQLLAQDAFRDVGVRLQERRHLDLIYNFGCHLTDDYRPGVDPALSDPTLARRLRENRTLAMNRLDEVISKYAMMQDKTEEGERQKRRARLLGTAPQPSDPPQASSESGEGPSGMASQECPTTSKAETDDDDDDDDDDDEDNEESEEEEEEEEEEKEATEDEDEDLEQLQEDQGGDEEEEGGDNEGNESPTSPSDFFHRRNSEPAEGLRTPEGQQKRGLTETPASPPGASLDPPSTDAESSGEQLLEPLLGDESPVSQLAELEMEALPEERDISSPRKKSEDSLPTILENGAAVVTSTSVNGRVSSHTWRDASPPSKRFRKEKKQLGSGLLGNSYIKEPMAQQDSGQNTSVQPMPSPPLASVASVADSSTRVDSPSHELVTSSLCSPSPSLLLQTPQAQSLRQCIYKTSVATQCDPEEIIVLSDSD
modifications: 35S-labeled (in vitro translated)

Assays:
[1] = molecular target: full length murine Fas expressed in cells (murine) (UniProt P25446)
[2] = molecular target: glutathione S-transferase (GST) (Schistosoma japonicum (Blood fluke), UniProt P08515 = GST); test: GST pull-down of in vitro translated 35S-Daxx
Text: In the two-hybrid system, the Daxx C-terminal region interacted strongly with Fas, confirming that Daxx is the functional homolog of clone A21 (FIG. 1B). We then tested the binding of full length murine Daxx protein in vitro and in mammalian cells. In vitro translated, ^35S-labeled Daxx bound to immobilized glutathione S-transferase (GST) fusion proteins of Fas death domain and TNFR1 intracellular tail but not to immobilized GST or GST-CD40 intracellular tail or GST-Fas lpr^cg death domain (FIG. 3A). Positions of MW standards (in kDa) are shown at left. Coomassie stained GST fusion proteins from the same gel were aligned to show protein levels. Daxx migrated with an apparent molecular weight of approximately 120 kDa on SDS-PAGE; this slower than expected migration may reflect the high content of acidic residues in Daxx. In the GST pull-down assay, ^35S-Daxx bound to GST-FasDD but only very weakly to GST-TNFR1. This discrepancy with the two-hybrid result (FIG. 1) may be due to the nonlinear readout of the two-hybrid system. Deletion of 162 amino acids from the C-terminus of Daxx abrogated binding to GST-FasDD while the C-terminal 112 amino acids (DaxxC) was sufficient to bind GST-FasDD (FIG. 3B), consistent with the two-hybrid results. Daxx(-162) was missing C-terminal 162 aa of Daxx; DaxxC corresponded to aa 628-739. […]

Row | Molecule | specific apoptosis of L929 cells stably overexpressing Daxx (L/Daxx) after Fas transfection [1] [fold] | binding result [2]
1 | HA-Daxx (hemagglutinin-tagged full length murine Daxx) | 3 | –
2 | B1 | – | no binding
